# In IntAct's records for PubMed 33097660:
# B1: ORF6 protein (SARS-CoV-2), P0DTC6 (parent)
# chain: MFHLVDFQVTIAEILLIIMRTFKVSIWNLDYIINLIIKNLSKSLTENKYSQLDEEQPMEID
# Variants of: B1
# Settings: with ima5_human KPNA1, P52294
# ima5_human KPNA1, P52294, sequence (P52294 whole entry): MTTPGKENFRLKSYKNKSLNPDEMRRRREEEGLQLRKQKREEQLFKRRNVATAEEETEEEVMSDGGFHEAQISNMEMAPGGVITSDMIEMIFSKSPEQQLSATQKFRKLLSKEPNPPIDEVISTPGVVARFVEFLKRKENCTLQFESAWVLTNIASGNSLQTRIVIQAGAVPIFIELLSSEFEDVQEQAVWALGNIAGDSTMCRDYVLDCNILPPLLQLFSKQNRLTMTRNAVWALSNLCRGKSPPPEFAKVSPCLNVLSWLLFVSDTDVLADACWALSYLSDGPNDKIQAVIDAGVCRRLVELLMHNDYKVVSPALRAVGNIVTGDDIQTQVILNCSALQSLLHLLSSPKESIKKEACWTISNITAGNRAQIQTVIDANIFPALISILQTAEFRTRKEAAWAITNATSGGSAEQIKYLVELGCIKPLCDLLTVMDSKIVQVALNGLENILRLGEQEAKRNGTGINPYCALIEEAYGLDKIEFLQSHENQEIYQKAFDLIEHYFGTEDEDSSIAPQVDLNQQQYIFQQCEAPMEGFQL
row,Variant,effect of a mutation on the interaction
1,M58R,with no effect

# Variants of: B1
# Settings: with ima1_human KPNA2, P52292
row,Variant,effect of a mutation on the interaction
1,M58R,with no effect

# Variants of: B1
# Settings: with nup98_human NUP98, P52948
# nup98_human NUP98, P52948, sequence (P52948 whole entry): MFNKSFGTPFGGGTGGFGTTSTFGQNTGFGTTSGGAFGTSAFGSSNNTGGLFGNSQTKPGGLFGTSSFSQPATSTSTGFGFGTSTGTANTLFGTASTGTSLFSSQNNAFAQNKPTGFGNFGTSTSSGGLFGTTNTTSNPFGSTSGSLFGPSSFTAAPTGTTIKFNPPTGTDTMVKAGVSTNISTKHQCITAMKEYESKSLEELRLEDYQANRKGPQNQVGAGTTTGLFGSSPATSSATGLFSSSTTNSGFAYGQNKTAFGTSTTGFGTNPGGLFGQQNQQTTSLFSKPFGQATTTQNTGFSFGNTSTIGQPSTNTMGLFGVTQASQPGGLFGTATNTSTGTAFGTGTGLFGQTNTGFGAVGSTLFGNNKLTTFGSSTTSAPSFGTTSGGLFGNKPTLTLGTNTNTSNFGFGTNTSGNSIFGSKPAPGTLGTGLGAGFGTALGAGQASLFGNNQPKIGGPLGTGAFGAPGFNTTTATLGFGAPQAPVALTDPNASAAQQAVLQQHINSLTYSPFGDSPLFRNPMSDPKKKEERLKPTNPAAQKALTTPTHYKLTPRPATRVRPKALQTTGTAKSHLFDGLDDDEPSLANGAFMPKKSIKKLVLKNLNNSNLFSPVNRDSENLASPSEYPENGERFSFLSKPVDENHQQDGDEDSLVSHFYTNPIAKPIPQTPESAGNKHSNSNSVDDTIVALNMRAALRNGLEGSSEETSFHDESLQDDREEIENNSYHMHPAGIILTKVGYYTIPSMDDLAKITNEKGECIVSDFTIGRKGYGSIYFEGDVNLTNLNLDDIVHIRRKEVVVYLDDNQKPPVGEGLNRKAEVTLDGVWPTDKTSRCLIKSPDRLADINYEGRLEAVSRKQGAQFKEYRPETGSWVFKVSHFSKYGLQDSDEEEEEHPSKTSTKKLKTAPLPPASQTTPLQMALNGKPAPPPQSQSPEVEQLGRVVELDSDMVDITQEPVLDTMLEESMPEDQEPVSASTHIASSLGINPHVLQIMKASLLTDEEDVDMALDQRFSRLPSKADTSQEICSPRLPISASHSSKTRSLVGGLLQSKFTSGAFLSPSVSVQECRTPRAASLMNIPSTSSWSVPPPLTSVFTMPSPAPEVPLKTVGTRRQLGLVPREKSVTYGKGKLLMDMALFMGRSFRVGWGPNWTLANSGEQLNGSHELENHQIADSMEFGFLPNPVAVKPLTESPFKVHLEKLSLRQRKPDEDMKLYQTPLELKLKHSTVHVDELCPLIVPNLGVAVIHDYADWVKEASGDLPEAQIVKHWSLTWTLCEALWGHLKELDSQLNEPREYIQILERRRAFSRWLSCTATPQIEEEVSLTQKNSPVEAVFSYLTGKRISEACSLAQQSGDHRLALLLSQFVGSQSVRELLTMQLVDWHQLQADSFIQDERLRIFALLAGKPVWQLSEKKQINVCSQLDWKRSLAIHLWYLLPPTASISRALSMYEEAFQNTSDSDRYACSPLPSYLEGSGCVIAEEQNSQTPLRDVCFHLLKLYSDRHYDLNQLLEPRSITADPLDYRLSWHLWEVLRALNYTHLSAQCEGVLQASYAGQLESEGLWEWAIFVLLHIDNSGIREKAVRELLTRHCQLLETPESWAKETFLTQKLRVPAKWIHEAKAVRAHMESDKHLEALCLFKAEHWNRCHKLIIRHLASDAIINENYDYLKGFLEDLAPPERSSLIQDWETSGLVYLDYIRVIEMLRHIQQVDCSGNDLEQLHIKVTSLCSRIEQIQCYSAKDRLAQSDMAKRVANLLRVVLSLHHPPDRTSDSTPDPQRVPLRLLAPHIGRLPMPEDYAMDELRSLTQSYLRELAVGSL
row,Variant,effect of a mutation on the interaction
1,M58R,disrupting interaction strength
